Laboratory results taken from PMC9213253 (The Journal of Biological Chemistry, 2022).

Assays:
AstC (ACIAD1284) = AstC (ACIAD1284) (Acinetobacter baylyi, UniProt Q6FCQ2); details: 10 mM DAP; 5 mM 2-oxoglutarate; 200 μM PLP; 200 μM NAD+; pH 9.0; 25 °C
Dat (ACIAD1210) = Dat (ACIAD1210) (Acinetobacter baylyi, UniProt Q6FCX2); details: 10 mM DAP; 5 mM 2-oxoglutarate; 200 μM PLP; 200 μM NAD+; pH 9.0; 25 °C
purified protein [1] = substrate: NCC[C@H](N)C(=O)O; assay: purified protein; format: biochemical, Acinetobacter baylyi; details: 100 mM Tris-HCl pH 8.5, 200 μM PLP, 2.5 mM CaCl2, 25 °C
purified protein [2] = substrate: NCCCN; assay: purified protein; details: 200 μM PLP
purified protein [3] = substrate: NC(=O)c1ccc[n+]([C@@H]2O[C@H](COP(=O)(O)OP(=O)(O)OC[C@H]3O[C@@H](n4cnc5c(N)ncnc54)[C@H](OP(=O)(O)O)[C@@H]3O)[C@@H](O)[C@H]2O)c1; assay: purified protein; details: pH 9.0, 25 °C, varied: cofactor
purified protein [4] = substrate: NC(=O)c1ccc[n+]([C@@H]2O[C@H](COP(=O)(O)OP(=O)(O)OC[C@H]3O[C@@H](n4cnc5c(N)ncnc54)[C@H](O)[C@@H]3O)[C@@H](O)[C@H]2O)c1; assay: purified protein; details: pH 9.0, 25 °C, varied: cofactor
purified protein [5] = substrate: NCCC=O; assay: purified protein; details: pH 9.0, 25 °C
purified protein [6] = substrate: O=C(O)CCC(=O)C(=O)O; assay: purified protein; details: 4 mM GABA, 200 μM PLP, 5 mM NAD+, pH 9.0, 25 °C
purified protein [7] = substrate: NCCCC(=O)O; assay: purified protein; details: 500 μM 2-oxoglutarate, 200 μM PLP, 5 mM NAD+, pH 9.0, 25 °C
[8] = 1 mM NAD+, BetB, 2.5 mM CaCl2, pH 9.0, 25 °C
[9] = 500 μM 2-oxoglutarate, 5 mM NAD+, pH 9.0, 25 °C

Chain of Dat (ACIAD1210) (Q6FCX2 1-456): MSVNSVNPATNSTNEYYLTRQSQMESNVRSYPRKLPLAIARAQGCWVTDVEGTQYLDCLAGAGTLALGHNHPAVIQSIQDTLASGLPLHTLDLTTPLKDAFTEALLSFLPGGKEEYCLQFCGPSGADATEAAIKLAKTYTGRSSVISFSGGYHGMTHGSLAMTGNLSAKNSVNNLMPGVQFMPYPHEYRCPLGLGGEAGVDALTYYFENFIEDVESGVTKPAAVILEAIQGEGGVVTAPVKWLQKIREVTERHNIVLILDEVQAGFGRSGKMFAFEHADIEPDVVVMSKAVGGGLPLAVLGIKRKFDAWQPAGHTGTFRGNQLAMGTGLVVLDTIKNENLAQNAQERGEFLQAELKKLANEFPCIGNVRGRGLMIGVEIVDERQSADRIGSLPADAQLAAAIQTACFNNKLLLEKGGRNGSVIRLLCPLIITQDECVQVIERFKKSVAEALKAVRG
Chain of AstC (ACIAD1284) (Q6FCQ2 1-403): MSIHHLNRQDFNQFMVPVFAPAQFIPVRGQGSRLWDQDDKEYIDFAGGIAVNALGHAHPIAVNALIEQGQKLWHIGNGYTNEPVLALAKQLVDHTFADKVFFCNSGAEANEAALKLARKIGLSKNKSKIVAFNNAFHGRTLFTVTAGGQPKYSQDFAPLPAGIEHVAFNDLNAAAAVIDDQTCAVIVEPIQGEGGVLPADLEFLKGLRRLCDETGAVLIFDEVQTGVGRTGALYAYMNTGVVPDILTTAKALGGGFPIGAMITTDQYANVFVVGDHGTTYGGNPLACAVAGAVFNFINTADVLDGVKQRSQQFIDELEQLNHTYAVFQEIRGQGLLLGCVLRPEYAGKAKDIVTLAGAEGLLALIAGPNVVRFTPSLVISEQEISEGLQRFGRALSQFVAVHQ

`NCCCN` [DAP] was tested, and the “BetB-coupled assay, NADH at 340 nm (aminotransferase)” value (AstC (ACIAD1284)) was “activity of AstC and Dat was too low to determine their kinetic parameters” and the “BetB-coupled assay, NADH at 340 nm (aminotransferase)” value (Dat (ACIAD1210)) was “activity of AstC and Dat was too low to determine their kinetic parameters”.

B1: Ddc (ACIAD1211) (Acinetobacter baylyi ADP1) (protein)
chain: MVDFAEHRKALLCNDAASIAEYQSAMDEAVKAVAAWLQNDKMYTGGSIKELRSAIAFNPSKEGLGLHQSLGRMVELFLNKSLKVHHPYSLAHLHCPTMVTSQIAEVLINATNQSMDSWDQSPAGSLMEVQLIDWLRQKVGYGVGQAGVFTSGGTQSNLMGVLLARDWAIAKNFTDENGQPWSVQRDGIPAEAMRNIKVICSENAHFSVQKNMAMMGMGFQSVVTVPVNENAQMDVDALEKTMSHLQSEGKIVACVVATAGTTDAGAIDPLKKIREITTKYGAWMHIDAAWGGALILSNDYRDMLDGIELSDSITLDFHKHYFQSISCGAFLLKDEANYRFMHYEAEYLNSAYDEEHGVPNLVSKSLQTTRRFDALKLWMTVEALGEELYGSMIDHGVKLTREVADYIKATEGLELLVEPQFASVLFRVVPDGYPVELIDTLNQNVADELFARGDANIGVTKVGAVQSLKMTTLSPVATLENVKGLLAMVLAESDRIKDSIAAGTYVPAID
For B1, the Km (purified protein [1]) was 1585 ± 257 µM, the kcat (purified protein [1]) was 12.1 ± 1.1 s⁻¹ and the kcat/Km (purified protein [1]) was 7600 M⁻¹ s⁻¹. The Km (purified protein [2]; [8]) was 710 ± 113 µM, the kcat (purified protein [2]; [8]) was 0.009 s⁻¹ and the kcat/Km (purified protein [2]; [8]) was 13 M⁻¹ s⁻¹.

B2: BetB (ACIAD1009) (Acinetobacter baylyi ADP1) (protein)
chain: MSDVKLHRLYIHGQYTDATSGKTFDSINPATGEVIATIQQASQTDIEAAVKSAAEGQKVWAAKTAVERSRILRRAVDILRERNDELAQLETLDTGKAFSETSTVDIVTGADVLEYYAGLATAIQGEQVPLRESSFFYTRREPLGVVAGIGAWNYPIQIALWKSAPALAAGNAMIFKPSEVTPLTAFKLAEIYSEAGLPAGVFNVVQGAGREIGQWLTEHAVIEKISFTGGVETGKKVMASAAGSTLKEVTMELGGKSPLIICEDANLDRAADIAVMANFFSSGQVCTNGTRVFIPQRLKAAFEQAVVERVKRIRMGDPQHTDTNFGPLVSFPHMEKVLSYIESGKQQGAKVLIGGERATTGLLAQGAYVQPTVFTDCHDDMKIVQEEIFGPVMSILTYDTIEEAIERANNTNFGLAAGVVTQNISQAHQIIHQLEAGICWINTWGESPAEMPVGGYKESGVGRENGISTLNHYTRTKSIQVELGDYQSVF
Molecule B2 has a Km (purified protein [3]; 2.5 mM 3AP) of 339 ± 67 µM, a kcat (purified protein [3]; 2.5 mM 3AP) of 2.43 ± 0.12 s⁻¹ and a kcat/Km (purified protein [3]; 2.5 mM 3AP) of 7200 M⁻¹ s⁻¹. For the same molecule, the Km (purified protein [4]; 2.5 mM 3AP) was 20 ± 4 µM, the kcat/Km (purified protein [4]; 2.5 mM 3AP) was 74000 M⁻¹ s⁻¹ and the Km (purified protein [5]; 2 mM NAD+) was 82 ± 17 µM. For the same molecule, the kcat (purified protein [5]; 2 mM NAD+) was 1.48 ± 0.16 s⁻¹ and the kcat/Km (purified protein [5]; 2 mM NAD+) was 18000 M⁻¹ s⁻¹.

B3: GabD-like (ACIAD0960) (Acinetobacter baylyi ADP1) (protein)
chain: MAYATVNPYTGETLKEFPFATEQEVKAAIDAGYTAFTTWKDSSFATRAEVLNKAAKILRDKTDYYAKFLTLEMGKLFKEAQGEVEICAQIFEYYAKHAEELLAPTKLSTANKEINATIYYEPQGIVMAVEPWNFPFYQIARILSAQLAAGNTVILKHASIVPQSANAFEQLLLDAGLPQGAFKNLYMQHEHIPLVLNDHRVCGVALTGSEGAGAEVAAHAGKALKKSTLELGGSDAFIVLKDADLEKTAQLAVSGRHSNAGQVCTASKRFIVVDEVYDQFVELYKQGVAKLKAGDPMDPDTTLAPLCSQDAADQLKKQVEKAKAAGATVEAIGAPVPEQGAFFQPLLMTDIQEDNEARYWEFFGPVTQLYRAKDEADAIRIANDSPFGLGGSVYTADHARGVEVAKQIHTGMVYINHPTTSQADLPFGGVGRSGYGRELIDLGLKEFVNHKLIAITDIDAKL
B3 was tested, and the Km (purified protein [3]; 15 mM 3AP) was 3718 ± 1138 µM, the kcat/Km (purified protein [3]; 15 mM 3AP) was 1000 M⁻¹ s⁻¹ and the Km (purified protein [4]; 15 mM 3AP) was 4507 ± 363 µM. It also gave a kcat (purified protein [4]; 15 mM 3AP) of 1.68 ± 0.04 s⁻¹ and a kcat/Km (purified protein [4]; 15 mM 3AP) of 370 M⁻¹ s⁻¹.

B4: AcoD (ACIAD2018) (Acinetobacter baylyi ADP1) (protein)
chain: MRYIDPNQPGSKVQFKAQYENFIGGQWVPPVKGEYFGNSSPVDGKVFTQIPRSSVEDIELALDAAHKAKADWNKASPTVRSNVLLKIADRLEENLELLAVAETWENGKPIRETLAADIPLAIDHFRYFAGCIRAQEGGISEIDEDTIAYHFHEPLGVVGQIIPWNFPILMAAWKLAPALAAGNCIVLKPAEQTPSSILVLAELIQDLLPPGVLNIVNGYGAEVGRPLATNPRISKIAFTGSTKVGQMIMQYATENIIPVTLELGGKSPNIFFEDILDKEDDYLEKTLEGFAMFALNQGEVCTCPSRALVQESIADKFLEMAVERVKRIKTGHPLDTETMIGAQASKQQFDKILGCIDTGRNEGAQLLTGGDARHDVDGGFYIEPTIFKGNNSMKIFQEEIFGPVLSVTTFKDFDDAMRIANDTIYGLGAGVWSRSAHTSYRAGRAIEAGRVWTNCYHLYPAHAAFGGYKQSGIGRENHRMMLDHYQQTKNLLVSYSTKPMGFF
B4 showed a Km (purified protein [4]; 20 mM 3AP) of 124 ± 49 µM, a kcat/Km (purified protein [4]; 20 mM 3AP) of 13000 M⁻¹ s⁻¹ and a Km (purified protein [5]; 2 mM NAD+) of 3559 ± 755 µM. The kcat (purified protein [5]; 2 mM NAD+) was 1.55 ± 0.35 s⁻¹ and the kcat/Km (purified protein [5]; 2 mM NAD+) was 440 M⁻¹ s⁻¹.

B5: GabT (ACIAD3446) (Acinetobacter baylyi ADP1) (protein)
chain: MDTKHSALNQRKQQATPRGVGVMCQWYADKAENATIWDAEGNTYIDFAGGIAVLNTGHRHPKVLAAVKAQLERFTHTAYQVTPYESYVALAERINELAPIAGPAKTTFFTTGAEAVENAVKIARCYTGRQGIITFGNGFHGRSFMTMAMTGKTAPYKRDFGLMPGGVFHARYPVESRGISVDDALESIENIFSEDVAPHDVAAIVLEPVQGEGGFNVVPADFLKRLRALCDKHGILLVADEVQTGFARTGKLYAMDHYETKADLITMAKSLGGGFPISGVVGRAEVMDAPNPGGLGGTYAGNPVAVAAAHAVIDAIQEEKLCERANELGAELVHVLKGLQQSTDQVITDIRALGSMVAAEFETAEQAKAVQNYAMQNGLLLLTCGKYGNVIRFLYPLTIPVEQFRSGLDILKQGVASLATDHTTQAIG
Work on B5 yielded a Km (purified protein [6]) of 58 ± 7 µM, a kcat/Km (purified protein [6]) of 8300 M⁻¹ s⁻¹ and a Km (purified protein [7]) of 399 ± 40 µM. It also gave a kcat (purified protein [7]) of 0.48 ± 0.021 s⁻¹, a kcat/Km (purified protein [7]) of 1200 M⁻¹ s⁻¹ and a Km (purified protein [2]; [9]) of 4356 ± 1014 µM. For the same molecule, the kcat (purified protein [2]; [9]) was 0.22 s⁻¹ and the kcat/Km (purified protein [2]; [9]) was 51 M⁻¹ s⁻¹.

B6: AdhA (ACIAD3339) (Acinetobacter baylyi ADP1) (protein)
chain: MGSLMKAAVVTAFNQPLEIKDVEIPKVTSGKVLVKMIATGVCHTDLHAMHGDWPIKPSLPFIPGHEGVGEVVEIGEGITHLKIGDTVGVPWLYSACGHCDHCYAGWETLCKQQQNSGYSVNGSFAEYCLADGEYVGVIPEGVDLLEIAPILCAGVTVYKGLKMTEAKTGDWVAISGIGGLGHVAVQYAKTMGFNVVAIDVDDSKLELAKQLGADVGINALKVDVKEEVLKATGEGCHGVLVTAVSPKAFEQAVSVVRRGGTMVLNGLPPGKFDLSIFDMVLDGITVRGSIVGTRLDLKEALDIAARGKVKAHISVEPLENINDIFERMEQGKIDGRIVIDLKL
B6 was tested, and the Km (purified protein [4]; 2 mM 3AP) was 1803 ± 305 µM, the kcat/Km (purified protein [4]; 2 mM 3AP) was 520 M⁻¹ s⁻¹ and the Km (purified protein [5]; 9 mM NAD+) was 141 ± 28 µM.
